# Test results from patent US10866245B2, “Methods for dye selection for protein melt temperature determinations” (LIFE TECHNOLOGIES CORPORATION, priority 2013, dated 2020).
# T1: T4 DNA ligase (Enterobacteria phage T4, UniProt P00970)
# T1 sequence (P00970 1-487): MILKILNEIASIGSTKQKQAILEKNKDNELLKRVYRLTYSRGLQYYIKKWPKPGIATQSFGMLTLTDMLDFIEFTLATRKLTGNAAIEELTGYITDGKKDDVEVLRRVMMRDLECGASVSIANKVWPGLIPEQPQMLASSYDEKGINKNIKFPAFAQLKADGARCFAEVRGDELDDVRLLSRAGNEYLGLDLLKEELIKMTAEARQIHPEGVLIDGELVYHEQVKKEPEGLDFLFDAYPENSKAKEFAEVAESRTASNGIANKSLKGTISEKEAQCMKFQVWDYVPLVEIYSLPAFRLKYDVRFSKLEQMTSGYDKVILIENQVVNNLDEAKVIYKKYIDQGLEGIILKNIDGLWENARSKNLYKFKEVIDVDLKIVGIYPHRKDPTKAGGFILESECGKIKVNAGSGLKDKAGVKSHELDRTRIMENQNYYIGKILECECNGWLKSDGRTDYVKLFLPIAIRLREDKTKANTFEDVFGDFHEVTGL
# B1: T4 DNA Ligase: T4 DNA ligase enzyme prepared in PBS and 5% glycerol at 3 mg/ml (protein, UniProt P00970 1-487, looked up)
# DNA ligase: T1 sequence (P00970 1-487)
# B2: Human Decorin: Human Decorin Protein, P/N 143-DE (R&D Systems) (protein, UniProt P07585 31-359, looked up)
# Decorin: DEASGIGPEVPDDRDFEPSLGPVCPFRCQCHLRVVQCSDLGLDKVPKDLPPDTTLLDLQNNKITEIKDGDFKNLKNLHALILVNNKISKVSPGAFTPLVKLERLYLSKNQLKELPEKMPKTLQELRAHENEITKVRKVTFNGLNQMIVIELGTNPLKSSGIENGAFQGMKKLSYIRIADTNITSIPQGLPPSLTELHLDGNKISRVDAASLKGLNNLAKLGLSFNSISAVDNGSLANTPHLRELHLDNNKLTRVPGGLAEHKYIQVVYLHNNNISVVGSSDFCPPGHNTKKASYSGVSLFSNPVQYWEIQPSTFRCVYVRSAIQLGNYK
# Assays:
# T4 DNA ligase = molecular target: T1, T4 DNA ligase; assay: Protein Thermal Shift assay of T4 DNA ligase with and without ligand ATP (SYPRO Orange); format: binding; conditions: derivative curve FIG. 2B
# Protocol: (§1) Applied Biosystems® Real-time PCR Systems instruments, as described above, are used to plot the fluorescence data throughout the thermal melt, generating a fluorescence profile specific to the protein of interest within the test buffer environment or in the presence of a test ligand. A MATLAB based TmTool™ which utilizes the Boltzmann equation to calculate the Tm of the protein from the fluorescence melt plot is used to process the raw data recorded with the instrument.
# T4 DNA ligase is prepared in phosphate buffered saline (PBS; 137 mM NaCl, 10 mM Phosphate, 2.7 mM KCl, pH 7.4) and 5% glycerol at a concentration of 3 mg/ml of protein. T4 DNA ligase samples are prepared using SYPRO® Orange with and without ligand (ATP at 10 mM concentration). SYPRO® Orange dye solution is prepared as a 1000× stock from a 5000× stock solution in DMSO, then diluted to a 10× stock solution using 100 mM Potassium phosphate buffer. The SYPRO® Orange-protein reaction mixture is prepared by using 1 μl of the protein solution, 2 μl of the 10× dye solution, and 17 μl of the PTS buffer. Quadruplicate samples for each protein-dye mixture are run on a ViiA™ 7 qPCR instrument (Life Technologies, Inc.) and analysis using Protein Thermal Shift™ software (Life Technologies Inc.). […]
# [1] = Protein Thermal Shift buffer and salt screen of RecA (SYPRO Orange, Boltzmann fit); format: physicochemical
# Source text: as §1
# FIGS. 3A through 3C illustrate the method of calculating Tm from a typical PTS. The MATLAB based TmTool™ calculates the Tm of the protein from the shape of the fluorescence plot in FIG. 3a. The thermo-stability of RecA in different buffer and salt conditions is compared and the region of interest is fitted to the Boltzmann equation. RecA is prepared in phosphate buffered saline (PBS; 137 mM NaCl, 10 mM Phosphate, 2.7 mM KCl, pH 7.4) and 5% glycerol at a concentration of 3 mg/ml of protein. SYPRO® Orange dye solution is prepared as a 1000× stock from a 5000× stock solution in DMSO, then diluted to a 10× stock solution with PTS buffer.
# The SYPRO® Orange-protein Protein Thermal Shift Assay reaction mixture is prepared by using 1 μl of the protein solution, 2 μl of the 10× dye solution, and 17 μl of each of experimental buffer solutions A1-A4, B1-B4, C1-C4, and D1-D4. Samples for each protein-dye mixture are run on a ViiA™ 7 qPCR instrument (Life Technologies, Inc.) and analysis using Protein Thermal Shift™ software (Life Technologies Inc.). The run time conditions are: a temperature hold at 20° C. for one minute followed by a thermal ramp of 0.05° C. with continuous data collection to 95° C., followed by a 1 minute hold at the final temperature.
# The Applied Biosystems' TmTool™ calculator provides the protein Tm calculated via Boltzmann curve-fitting. […] Thus, the methods can be used to identify salt and pH concentrations best suited for stability of a protein as well as conditions for protein storage, crystallography, etc. The Boltzmann equation used is: […]
# [2] = Protein Thermal Shift of RecA with dye formulation 7 versus SYPRO Orange alone; format: physicochemical
# Protocol: The assays are run on a ViiA™7 qPCR instrument (Life Technologies, Inc.) and analyzed using Protein Thermal Shift™ software (Life Technologies Inc.). The run time conditions are: a temperature hold at 20° C. for one minute followed by a thermal ramp of 0.05° C. with continuous data collection to 95° C., followed by a 1 minute hold at the final temperature.
# PTS is performed on RecA, using conditions as is discussed in Example 6. 1.4 μl of each of the 100× dye formulations is added according to Table 9. PTS reproducibility is improved with dye formulation 7 (SYPRO® Orange, SYPRO® Red and SYPRO® Tangerine) (FIGS. 13A and 13B) using an X5-M5 filter relative to SYPRO® Orange alone using an X4-M4 filter. In FIG. 13A, using the mixture of dyes (formulation 7), the two melt curves shown are for RecA in E3 and C3 buffer, respectively.
# Human Decorin Protein = molecular target: T2, Human Decorin Protein (Homo sapiens, UniProt P07585); assay: Protein Thermal Shift of human Decorin, anti-Decorin antibody and their mixture; format: binding; conditions: isolated protein or isolated antibody
# T2 construct: purchased R&D Systems 143-DE
# Protocol: T4 DNA ligase is prepared in phosphate buffered saline (PBS; 137 mM NaCl, 10 mM Phosphate, 2.7 mM KCl, pH 7.4) and 5% glycerol at a concentration of 3 mg/ml of protein. T4 DNA ligase samples are prepared using SYPRO® Orange with and without ligand (ATP at 10 mM concentration). SYPRO® Orange dye solution is prepared as a 1000× stock from a 5000× stock solution in DMSO, then diluted to a 10× stock solution using 100 mM Potassium phosphate buffer. The SYPRO® Orange-protein reaction mixture is prepared by using 1 μl of the protein solution, 2 μl of the 10× dye solution, and 17 μl of the PTS buffer. Quadruplicate samples for each protein-dye mixture are run on a ViiA™ 7 qPCR instrument (Life Technologies, Inc.) and analysis using Protein Thermal Shift™ software (Life Technologies Inc.). The run time conditions are: a temperature hold at 20° C. for one minute followed by a thermal ramp of 0.05° C. with continuous data collection to 95° C., followed by a 1 minute hold at the final temperature.
# An assay was performed to identify whether PTS can be used to analyze binding of an antibody to its ligand. The method is performed using buffer and reaction conditions as described in EXAMPLE 1.
molecule,measurement,setting,value
"Nc1ncnc2c1ncn2[C@@H]1O[C@H](COP(=O)(O)OP(=O)(O)OP(=O)(O)O)[C@@H](O)[C@H]1O [ATP, reference compound]",Tm of complexed T4 DNA Ligase,T4 DNA ligase; with ligand ATP at 10 mM,about 48 °C
RecA: RecA DNA repair protein,Tm in ° C.,"[1]; Buffer A1: 100 mM Sodium Citrate, pH 5.5, 0 mM NaCl",42.2 °C
same,Tm in ° C.,"[1]; Buffer A2: 100 mM Sodium Citrate, pH 5.5, 50 mM NaCl",41.7 °C
same,Tm in ° C.,"[1]; Buffer A3: 100 mM Sodium Citrate, pH 5.5, 100 mM NaCl",42.1 °C
same,Tm in ° C.,"[1]; Buffer A4: 100 mM Sodium Citrate, pH 5.5, 150 mM NaCl",41.6 °C
same,Tm in ° C.,"[1]; Buffer B1: 100 mM Potassium Phosphate, pH 6.0, 0 mM NaCl",41.8 °C
same,Tm in ° C.,"[1]; Buffer B2: 100 mM Potassium Phosphate, pH 6.0, 50 mM NaCl",41.2 °C
same,Tm in ° C.,"[1]; Buffer B3: 100 mM Potassium Phosphate, pH 6.0, 100 mM NaCl",41.2 °C
same,Tm in ° C.,"[1]; Buffer B4: 100 mM Potassium Phosphate, pH 6.0, 150 mM NaCl",41.1 °C
same,Tm in ° C.,"[1]; Buffer C1: 100 mM Potassium Phosphate, pH 7.0, 0 mM NaCl",46.8 °C
same,Tm in ° C.,"[1]; Buffer C2: 100 mM Potassium Phosphate, pH 7.0, 50 mM NaCl",46.6 °C
same,Tm in ° C.,"[1]; Buffer C3: 100 mM Potassium Phosphate, pH 7.0, 100 mM NaCl",46 °C
same,Tm in ° C.,"[1]; Buffer C4: 100 mM Potassium Phosphate, pH 7.0, 150 mM NaCl",45.7 °C
same,Tm,"[2]; Buffer C3, SYPRO Orange alone, X4-M4 filter",53.3 °C
same,Tm,"[2]; Buffer C3, dye formulation 7, X5-M5 filter",49.5 °C
same,Tm,"[2]; Buffer E3, SYPRO Orange alone, X4-M4 filter",48.1 °C
same,Tm,"[2]; Buffer E3, dye formulation 7, X5-M5 filter",45.7 °C
B1,Tm of uncomplexed T4 DNA Ligase,T4 DNA ligase; no ligand,about 42 °C
B2,Tm,Human Decorin Protein,47.7 °C
